Measurements reported in patent US20190055322A1.

B1: Nanobody 302 (5H01-40GS-7C10) (VHH)
chain: EVQLVESGGGLVQPGGSLRLSCAASGSTLDYYAIGWFRQAPGKEREGVSCTSNSGSTYYGGSVKGRFTASRDNAKNTVYLQMNSLRPEDTAVYYCVATIGCATLGGTLDVQRYYYRGQGTLVTVSSGGGGSGGGGSGGGGSGGGGSGGGGSGGGGSGGGGSGGGGSEVQLVESGGGLVQAGGSLRLSCTASGRTLSSYTMGWFRQAPGTEREFVAAMTRSGFNTYYADSVKGRFTISRDSTENTMALQMSSLKPEDTAVYYCTAGRGLTSYRADYWGQGTLVTVSS
B2: Nanobody 083 (7C10-40GS-11B09) (VHH)
chain: EVQLVESGGGLVQAGGSLRLSCTASGRTLSSYTMGWFRQAPGTEREFVAAMTRSGFNTYYADSVKGRFTISRDSTENTMALQMSSLKPEDTAVYYCTAGRGLTSYRADYWGQGTLVTVSSGGGGSGGGGSGGGGSGGGGSGGGGSGGGGSGGGGSGGGGSEVQLVESGGGLVQAGGSLRLSCAASRLTFNHYNMGWFRQAPGKERERVAEVTWSGDKIYYVDSVKGRFTISRDNTPNPVYLYLQMNSLKPEDTAVYYCATAPRGLPYANGYWGQGTLVTVSS
B3: Nanobody 272 (11B09-40GS-10C05) (VHH)
chain: EVQLVESGGGLVQAGGSLRLSCAASRLTFNHYNMGWFRQAPGKERERVAEVTWSGDKIYYVDSVKGRFTISRDNTPNPVYLYLQMNSLKPEDTAVYYCATAPRGLPYANGYWGQGTLVTVSSGGGGSGGGGSGGGGSGGGGSGGGGSGGGGSGGGGSGGGGSEVQLVESGGGLVQPGGSLRLSCAASGSIFSINTMGWYRQAPGKQRDLVASITMNQVPNYADSVQGRFTISRDNVRNTVHLQMNAVKPEDTADYFCNAWVRSSGASPYTNYWGQGTLVTVSS
B4: Nanobody 264 (1E11-40GS-2B02) (VHH)
chain: EVQLVESGGGLVQPGGSLRLSCAASGSTRSVNPMAWFRQAPGRQREWVATISRSGYATYADSVKGRFTISGDNAKSSVYLQMNSLKPEDTAVYYCVTGTYWGQGTLVTVSSGGGGSGGGGSGGGGSGGGGSGGGGSGGGGSGGGGSGGGGSEVQLVESGGGLVQPGDSLRLSCAASGRILSINNMVWYRQAPGKQRELVAHITSSGSTGYADSVKGRFTISRDNAKNTFYLQMTNLNPEDTAVYYCNCWVSSDSNAPLKNYWGQGTLVTVSS
B5: Nanobody 260 (1E11-40GS-2B10) (VHH)
chain: EVQLVESGGGLVQPGGSLRLSCAASGSTRSVNPMAWFRQAPGRQREWVATISRSGYATYADSVKGRFTISGDNAKSSVYLQMNSLKPEDTAVYYCVTGTYWGQGTLVTVSSGGGGSGGGGSGGGGSGGGGSGGGGSGGGGSGGGGSGGGGSEVQLVESGGGLVQPGGSLRLSCAASGSIFSINNMGWYRQAPGKQRELVTVVTSNLITTYADSVKGRFTISRDNAKNTVYLQMNSLKPEDTAVYYCNAWARSVGSVPYSQFWGQGTLVTVSS
B6: Fab 26.24 (Fab, V domains shown)
VH: EVQLVESGGGVVQPGRSLRLSCAASGFTFSNYPMHWVRQAPGKGLEWVAVISYDGSEKWYADSVKGRFTISRDNSKNTLYLEMNSLRPEDTAVYYCARNRGDIYYDFTYAMDIWGQGTTVTVSS
VL: DIQLTQSPSTLSASVGDSVTITCRASEGVDRWLAWYQQKPGRAPKLLIYDASTLQSGVPSRFSGSGSGTEFSLTISSLQPDDVATYYCQHFWGTPYTFGQGTKLEIKR
B7: Nanobody 234 (7C10-40GS-5H01) (VHH)
chain: EVQLVESGGGLVQAGGSLRLSCTASGRTLSSYTMGWFRQAPGTEREFVAAMTRSGFNTYYADSVKGRFTISRDSTENTMALQMSSLKPEDTAVYYCTAGRGLTSYRADYWGQGTLVTVSSGGGGSGGGGSGGGGSGGGGSGGGGSGGGGSGGGGSGGGGSEVQLVESGGGLVQPGGSLRLSCAASGSTLDYYAIGWFRQAPGKEREGVSCTSNSGSTYYGGSVKGRFTASRDNAKNTVYLQMNSLRPEDTAVYYCVATIGCATLGGTLDVQRYYYRGQGTLVTVSS
B8: Nanobody 087 (1E11-40GS-7C10) (VHH)
chain: EVQLVESGGGLVQPGGSLRLSCAASGSTRSVNPMAWFRQAPGRQREWVATISRSGYATYADSVKGRFTISGDNAKSSVYLQMNSLKPEDTAVYYCVTGTYWGQGTLVTVSSGGGGSGGGGSGGGGSGGGGSGGGGSGGGGSGGGGSGGGGSEVQLVESGGGLVQAGGSLRLSCTASGRTLSSYTMGWFRQAPGTEREFVAAMTRSGFNTYYADSVKGRFTISRDSTENTMALQMSSLKPEDTAVYYCTAGRGLTSYRADYWGQGTLVTVSS
B9: Nanobody 258 (13F07-40GS-14E10) (VHH)
chain: EVQLVESGGGLVQAGGSLRLSCAASGNTFSTNPMYWYRQAEGKQRELVASISSRGITNYADSVRGRFSISRDNTKDTVYLQMNSLKPEDTAVYYCRLASLSSGTVYWGKGTLVTVSSGGGGSGGGGSGGGGSGGGGSGGGGSGGGGSGGGGSGGGGSEVQLVESGGGLVQPGGSLRLSCAASGRIFSINTMGWYRQAPGKQRELVAGVTINAITNYADSVKGRFTISRDNAKNTVWLQMNSLKPEDTAVYYCHAWARSSGSAPYSQNWGQGTLVTVSS
B10: Nanobody 269 (6B05-40GS-13F07) (VHH)
chain: EVQLVESGGGLVQPGGSLRLSCAASGSIFSINTMGWYRQAPGKQRELVSTITSNLVPHYADSVQGRFTISRDNARNTVYLQMNSLKPQDTAHYYCNAWARSSGATPYTNYWGQGTLVTVSSGGGGSGGGGSGGGGSGGGGSGGGGSGGGGSGGGGSGGGGSEVQLVESGGGLVQAGGSLRLSCAASGNTFSTNPMYWYRQAEGKQRELVASISSRGITNYADSVRGRFSISRDNTKDTVYLQMNSLKPEDTAVYYCRLASLSSGTVYWGKGTLVTVSS
B11: Nanobody 308 (6B05-40GS-1E11) (VHH)
chain: EVQLVESGGGLVQPGGSLRLSCAASGSIFSINTMGWYRQAPGKQRELVSTITSNLVPHYADSVQGRFTISRDNARNTVYLQMNSLKPQDTAHYYCNAWARSSGATPYTNYWGQGTLVTVSSGGGGSGGGGSGGGGSGGGGSGGGGSGGGGSGGGGSGGGGSEVQLVESGGGLVQPGGSLRLSCAASGSTRSVNPMAWFRQAPGRQREWVATISRSGYATYADSVKGRFTISGDNAKSSVYLQMNSLKPEDTAVYYCVTGTYWGQGTLVTVSS
B12: Nanobody 283 (7E09-40GS-6B05) (VHH)
chain: EVQLVESGGGLVQAGGSLRLSCAASGRTFSSYIMGWFRQAPGKAREFVADITWGQRPYYADSVKGRFTISRDNAKNTVYLEMNSLKPEDTAVYYCAADLGVVIREEHAYWGQGTLVTVSSGGGGSGGGGSGGGGSGGGGSGGGGSGGGGSGGGGSGGGGSEVQLVESGGGLVQPGGSLRLSCAASGSIFSINTMGWYRQAPGKQRELVSTITSNLVPHYADSVQGRFTISRDNARNTVYLQMNSLKPQDTAHYYCNAWARSSGATPYTNYWGQGTLVTVSS

These binders were tested against PcrV of P. aeruginosa strain PA103 (on TTSS-induced bacteria) (Pseudomonas aeruginosa strain PA103) (assay: cell-based or functional assay).
B1 gave a % inhibition in P3X63 cytotoxicity assay, extract 1/150 of 68%.
B2 gave a % inhibition in P3X63 cytotoxicity assay, extract 1/150 of 61%.
B3 gave a % inhibition in P3X63 cytotoxicity assay, extract 1/150 of 66%.
With B4 the % inhibition in P3X63 cytotoxicity assay, extract 1/150 was 47%.
Binder B5 has a % inhibition in P3X63 cytotoxicity assay, extract 1/150 of 57%.
B6 was tested, and the % inhibition, P3X63 cytotoxicity assay, MOI 1.5 was 100%, the % inhibition, P3X63 cytotoxicity assay, MOI 4 was 100% and the IC50 (nM), P3X63 cytotoxicity assay, MOI 1.5 was 34 nM. The IC50 (nM), P3X63 cytotoxicity assay, MOI 4 was 48 nM.
B7 was tested, and the % inhibition in P3X63 cytotoxicity assay, extract 1/150 was 63%.
B8 was tested, and the % inhibition in P3X63 cytotoxicity assay, extract 1/150 was 49%.
In the case of B9, the % inhibition in P3X63 cytotoxicity assay, extract 1/150 is reported as 69%, the Efficacy (%), P3X63 cytotoxicity, MOI 12 is reported as 100% and the IC50 value (M), P3X63 cytotoxicity, MOI 12 is reported as 9e-11 M. It also gave a Ratio (IC50 Fab 13.37/IC50 Nanobody), A549 cytotoxicity of 1 fold.
B10 was tested, and the % inhibition in P3X63 cytotoxicity assay, extract 1/150 was 41%, the Efficacy (%), P3X63 cytotoxicity, MOI 12 was 100% and the IC50 value (M), P3X63 cytotoxicity, MOI 12 was 8.2e-10 M. For the same binder, the Ratio (IC50 Fab 13.37/IC50 Nanobody), A549 cytotoxicity was 1 fold.
In the case of B11, the % inhibition in P3X63 cytotoxicity assay, extract 1/150 is reported as 57%, the Efficacy (%), P3X63 cytotoxicity, MOI 12 is reported as 100% and the IC50 value (M), P3X63 cytotoxicity, MOI 12 is reported as 1.8e-10 M. The Ratio (IC50 Fab 13.37/IC50 Nanobody), A549 cytotoxicity was 0.3 fold.
Binder B12 has a % inhibition in P3X63 cytotoxicity assay, extract 1/150 of 45%, an Efficacy (%), P3X63 cytotoxicity, MOI 12 of 100% and an IC50 value (M), P3X63 cytotoxicity, MOI 12 of 7.6e-11 M. For the same binder, the Ratio (IC50 Fab 13.37/IC50 Nanobody), A549 cytotoxicity was 1 fold.
